In patent publication US20240132626A1:

Molecular target: Soluble human cMet extracellular domain (ECD) protein (human) (UniProt P08581)
Assay: SPR, captured via anti-human kappa, soluble ECD injected

Sequence of Soluble human cMet extracellular domain (ECD) protein (human) (P08581 25-932): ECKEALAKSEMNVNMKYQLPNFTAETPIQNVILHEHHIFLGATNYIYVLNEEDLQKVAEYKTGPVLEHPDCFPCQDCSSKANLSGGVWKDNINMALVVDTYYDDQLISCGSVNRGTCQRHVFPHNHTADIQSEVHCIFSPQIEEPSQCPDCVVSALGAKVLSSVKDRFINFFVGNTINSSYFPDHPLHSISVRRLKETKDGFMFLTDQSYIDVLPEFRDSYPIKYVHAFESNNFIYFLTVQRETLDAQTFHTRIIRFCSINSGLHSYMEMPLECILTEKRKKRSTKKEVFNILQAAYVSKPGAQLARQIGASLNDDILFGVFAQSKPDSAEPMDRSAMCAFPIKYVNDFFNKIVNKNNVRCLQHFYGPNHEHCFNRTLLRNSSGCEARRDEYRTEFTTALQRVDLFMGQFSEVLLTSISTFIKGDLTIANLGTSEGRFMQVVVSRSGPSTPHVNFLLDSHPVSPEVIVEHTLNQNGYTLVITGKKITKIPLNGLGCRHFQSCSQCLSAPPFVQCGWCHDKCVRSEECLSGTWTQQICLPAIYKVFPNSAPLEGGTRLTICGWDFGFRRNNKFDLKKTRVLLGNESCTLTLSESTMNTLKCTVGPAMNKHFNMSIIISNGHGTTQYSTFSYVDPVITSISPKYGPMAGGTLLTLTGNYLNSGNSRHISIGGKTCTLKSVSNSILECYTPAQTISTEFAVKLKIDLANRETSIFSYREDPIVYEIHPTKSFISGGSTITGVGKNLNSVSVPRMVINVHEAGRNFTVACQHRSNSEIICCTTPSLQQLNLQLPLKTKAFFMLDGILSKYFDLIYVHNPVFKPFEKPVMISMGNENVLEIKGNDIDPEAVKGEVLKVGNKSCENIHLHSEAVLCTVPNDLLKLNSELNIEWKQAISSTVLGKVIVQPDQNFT

B1: MetMAb (antibody, INN chains, looked up, V domains shown)
VH: EVQLVESGGGLVQPGGSLRLSCAASGYTFTSYWLHWVRQAPGKGLEWVGMIDPSNSDTRFNPNFKDRFTISADTSKNTAYLQMNSLRAEDTAVYYCATYRSYVTPLDYWGQGTLVTVSS
VL: DIQMTQSPSSLSASVGDRVTITCKSSQSLLYTSSQKNYLAWYQQKPGKAPKLLIYWASTRESGVPSRFSGSGSGTDFTLTISSLQPEDFATYYCQQYYAYPWTFGQGTKVEIKR
Work on B1 yielded a Kd of 1.3 nM, a koff of 0.0001 s⁻¹ and a kon of 75000 M⁻¹ s⁻¹.
